Reference: US20180037631A1 (Bristol-Myers Squibb, published 2018)
Several values for one entry are separate records, joined by “and”; a condition that tells them apart may be missing. Equal entries are not always repeated. Where two headings read alike, the source gives them in different places.

Experiments:
[1] = target: T1, EGFR on the surface of human tumour cells (A431, H292) (human, UniProt P00533 25-1210); test: cell-based or functional assay
[2] = target: T2, IGF-IR on human tumour cells (H292, MCF-7, RH41) (human, UniProt P08069 31-1367); test: cell-based or functional assay
[3] = target: T1, EGFR on the surface of human tumour …; test: cell-based or functional assay; remark: listed apart in the source
[4] = target: T1, EGFR on the surface of human tumour …; test: cell-based or functional assay; remark: listed apart in the source
[5] = target: T1, EGFR on the surface of human tumour …
[6] = target: T3, Recombinant human EGFR-Fc (aa 1-645 of the extracellular domain of human EGFR fused to human Fc) (human, UniProt P00533 25-645)
T3 construct: range 1-645; bought from R&D Systems; also called EGFR645-Fc; EGFR-Fc (HER-1); not shown: human Fc

[7] = target: T1, EGFR on the surface of human tumour …; test: cell-based or functional assay; remark: listed apart in the source
[8] = target: T1, EGFR on the surface of human tumour …; test: cell-based or functional assay; remark: listed apart in the source
[9] = target: T2, IGF-IR on human tumour cells (H292, …); test: cell-based or functional assay; remark: listed apart in the source
[10] = target: T1, EGFR on the surface of human tumour …; remark: listed apart in the source
[11] = target: T3, Recombinant human EGFR-Fc (aa 1-645 of …); test: SPR Biacore
[12] = target: T1, EGFR on the surface of human tumour …; remark: listed apart in the source
[13] = target: T3, Recombinant human EGFR-Fc (aa 1-645 of …); test: BIAcore
[14] = target: T3, Recombinant human EGFR-Fc (aa 1-645 of …); remark: listed apart in the source
[15] = target: T3, Recombinant human EGFR-Fc (aa 1-645 of …); remark: listed apart in the source
[16] = target: T3, Recombinant human EGFR-Fc (aa 1-645 of …); remark: listed apart in the source
[17] = target: T4, IGF1R-Fc (extracellular domain of human IGF1R aa 1-932 fused to hinge and constant regions of human IgG1) (human, UniProt P08069 31-932)
T4 construct: range 1-932; made in house by transient transfection, purified on Protein A; also called IGF-IR-Fc; not shown: hinge and constant regions of human IgG1

[18] = target: T2, IGF-IR on human tumour cells (H292, …); test: [125I]-IGF-I competition on MCF-7 cells
[19] = target: T2, IGF-IR on human tumour cells (H292, …); test: cell-based or functional assay; remark: listed apart in the source
[20] = target: T4, IGF1R-Fc (extracellular domain of human …); test: SPR Biacore, IGF-IR-Fc captured on Protein A
[21] = target: T2, IGF-IR on human tumour cells (H292, …); test: IGF-I competition for IGF-IR binding
[22] = target: T4, IGF1R-Fc (extracellular domain of human …); test: SPR Biacore
[23] = target: T2, IGF-IR on human tumour cells (H292, …); test: cell-based or functional assay; remark: listed apart in the source
[24] = target: T1, EGFR on the surface of human tumour …; remark: listed apart in the source
[25] = target: T1, EGFR on the surface of human tumour …; test: cell-based or functional assay; remark: listed apart in the source
[26] = target: T3, Recombinant human EGFR-Fc (aa 1-645 of …); remark: listed apart in the source
[27] = target: T1, EGFR on the surface of human tumour …; test: cell-based or functional assay; remark: listed apart in the source
[28] = target: T4, IGF1R-Fc (extracellular domain of human …); remark: listed apart in the source
monkey EGFR = monkey EGFR (monkey); test: SPR Biacore
mouse EGFR = mouse EGFR (mouse, UniProt Q01279 25-647, limits assumed); test: SPR Biacore
rat EGFR = rat EGFR (rat, UniProt A0ABK0LZB0 35-1214); test: SPR Biacore

| Binder | A431 pEGFR IC50 (In-Cell Western) [1] [nM] | A431 pERK IC50 (In-Cell Western) [1] [nM] | H292 pEGFR IC50 (ELISA) [1] [nM] | H292 pIGF-IR IC50 (ELISA) [2] | IC50, EGF-stimulated EGFR phosphorylation, H292 cells, ELISA [3] [nM] | % inhibition of EGFR phosphorylation at 100 nM binder, cell-based assay [4] [%] | IC50 [5] [nM] | Inhibition of H292 Proliferation IC50 [7] [nM] | Inhibition of PERK IC50 [7] [nM] | Inhibition of pEGFR IC50 [7] [nM] | inhibition of EGF-stimulated EGFR phosphorylation (Y1068), H292 cells, ELISA, IC50 [8] [nM] | inhibition of IGF1-stimulated IGF1R phosphorylation (Y1131), H292 cells, ELISA, IC50 [9] [nM] | Kd [11] [nM] | IC50 [12] [nM] | Kd [13] [nM] | IC50, IGF1-stimulated IGFR phosphorylation, H292 cells, ELISA [19] [nM] | further results |
| --- | --- | --- | --- | --- | --- | --- | --- | --- | --- | --- | --- | --- | --- | --- | --- | --- | --- |
| E1 EGFR 10Fn3-based binder, His-tagged monomer (designed binder) MGVSDVPRDLEVVAATPTSLLISWVAGAEDYQYYRITYGETGGNSPVQEFTVPHDLVTATISGLKPGVDYTITVYAVTDMMHVEYTEHPISINYRTEIDKPSQHHHHHH | 24 | 13 | 9 | > 3.4 µM | 8 | 85.9 | 0.53 | 18 | 17 | 18 | 7 | > 3500 | 9.92 | 15.9 | 14.6 |  | Kd [6]: 9.92 nM and 13.2 nM; koff [6]: 0.00118 s⁻¹ and 0.00189 s⁻¹; kon [6]: 119000 M⁻¹ s⁻¹ and 143000 M⁻¹ s⁻¹; IC50 [10]: 14 nM |
| E3 EGFR 10Fn3-based binder, His-tagged monomer (designed binder) MGVSDVPRDLEVVAATPTSLLISWLPGKLRYQYYRITYGETGGNSPVQEFTVPHDLRTATISGLKPGVDYTITVYAVTNMMHVEYSEYPISINYRTEIDKPSQHHHHHH | 15 | 11 | 22 | > 7 µM | 21 | 87.5 | 0.87 | 26 | 97 | 11 |  |  | 3.4 | 4.75 | 0.72 |  | IC50, EGF-stimulated EGFR phosphorylation, A431 cells, In Cell Western [3]: 14 nM; Kd [14]: 1.4 nM; Kd [15]: 3.4 nM; koff [16]: 0.000398 s⁻¹; kon [16]: 283000 M⁻¹ s⁻¹ |
| I1 IGF-IR 10Fn3-based binder, His-tagged monomer (designed binder) MGVSDVPRDLEVVAATPTSLLISWSARLKVARYYRITYGETGGNSPVQEFTVPKNVYTATISGLKPGVDYTITVYAVTRFRDYQPISINYRTEIDKPSQHHHHHH |  |  |  | 0.2 nM |  |  |  |  |  |  | > 6210 | 18 |  |  |  | 0.4 | Kd [17]: 0.11 nM; koff [17]: 0.000434 s⁻¹; kon [17]: 3.84e+06 M⁻¹ s⁻¹; IC50 [18]: 8 nM; Kd [20]: 0.11 nM; IC50 [21]: 8 nM; Kd [22]: 0.11 nM; Inhibition of RH41 Proliferation IC50 [23]: 28 nM; Inhibition of pIGFR IC50 [23]: 0.2 nM |
| I1-GS10-E4 pegylated, His-tagged (designed binder, 40 kDa branched PEG on the Cys of the C-terminal Cys tail) MGVSDVPRDLEVVAATPTSLLISWSARLKVARYYRITYGETGGNSPVQEFTVPKNVYTATISGLKPGVDYTITVYAVTRFRDYQPISINYRTEIDKGSGSGSGSGSGSGSGSGSGSVSDVPRDLEVVAATPTSLLISWHERDGSRQYYRITYGETGGNSPVQEFTVPGGVRTATISGLKPGVDYTITVYAVTDYFNPTTHEYIYQTTPISINYRTEIDKPCQHHHHHH |  |  |  |  |  |  |  |  |  |  |  |  |  |  |  | 0.2 | IC50 [24]: 38.1 nM; H292 colony formation assay IC50 [25]: 6 nM; Kd [26]: 3.63 nM; IC50, EGF-induced EGFR phosphorylation, A431 cells, In Cell Western [27]: 12 nM; IC50, EGF-induced ERK phosphorylation, A431 cells, In Cell Western [27]: 13 nM; IC50, EGF-stimulated EGFR phosphorylation, H292 cells, ELISA [27]: 4 nM; Kd [28]: 0.46 nM; Kd (monkey EGFR): 3.9 nM; Kd (mouse EGFR): 5.5 nM; Kd (rat EGFR): 3.7 nM |
